Several values for one entry are separate records, joined by “and”; a condition that tells them apart may be missing. Equal values may be shown once. Each block holds one molecule with its values, some of them ahead of it.
Assays:
Format in all cases: physicochemical
[1] = Morphological characterization of porous films by SEM (mean pore diameter, porosity)
Experimental: The morphology of the porous films (cryogenically fractured surfaces) was observed by scanning electron microscopy (SEM) using a JEOL JSM-6300 microscope at an accelerating voltage of 5 kV. The SEM samples were Au-sputtered prior to observation. The mean pore diameter (n=100 small pores or 50 large pores) and porosity of the observed morphologies were analyzed using the Sigma Scan Pro software, and statistics were calculated using SPSS 10 software. Statistical significance was determined based on ANOVA (Tukey-Kramer). The area occupied by the pores was calculated for each SEM fractograph using Sigma Scan Pro software in order to evaluate the porosity of the samples. Porosity was determined as the area occupied by the pores divided by the total area.

[2] = Encapsulation efficiency of the loaded agent in the films
[3] = In vitro drug release from films in PBS at 37° C. (HPLC); conditions: for time at which the drug was almost fully released: antibiotic-loaded 50:50 PDLGA films, O:A 6:1, 2% drug
Experimental: Small films of 1.5 cm by 0.5 cm, were immersed in phosphate buffered saline (PBS) at 37° C. for 70 days in order to determine the various drug release kinetics therefrom in four repetitions. The release studies were conducted in closed glass tubes containing 3.0 ml PBS medium. The medium was removed completely at various time points, and at each sampling time fresh medium was introduced. The medium's drug concentration was determined using Jasco High Performance Liquid Chromatography (HPLC) with a UV 2075 plus detector and a reverse phase column kept at 25° C.

[4] = In vitro HRP release from porous films in PBS at 37° C. (micro BCA)
Experimental: Small 1.5 cm by 2.0 cm films (four samples) were immersed in phosphate-buffered saline (PBS) at 37° C. for 28 days in order to determine the HRP release kinetics from these structures. The release studies were conducted in closed glass tubes containing 2.0 ml PBS medium. The medium was removed (completely) periodically, at each sampling time, and fresh medium was introduced. Sampling was carried out at 0.5, 1, 2, 3, 7, 14, 21 and 28 days.
The HRP concentration of each medium sample was determined using the micro BCA assay method, by measuring absorbance at 562 nm, using a SpectraMax 340 PC^384 plate reader spectrophotometer. Cumulative HRP release profiles were determined relative to the initial amount of HRP in the composite fibers (HRP released during the incubation period+the residue remaining in the fibers). Four repetitions were performed for each sample, and the results are presented as means±one standard deviation.

[5] = drug-loaded 50:50 PDLGA 17.5% w/v film, no surfactant, 28 000 rpm
[6] = drug-loaded film, BSA (5%), 28 000 rpm
[7] = drug-loaded film, BSA (5%), 28 000 rpm, listed as paclitaxel
[8] = 5% w/v BSA film versus film with no surfactant, 28000 rpm
[9] = drug-loaded film, BSA (1%), 14 000 rpm
[10] = drug-loaded film, BSA (1%), 28 000 rpm
[11] = drug-loaded film, no surfactant, 14 000 rpm
[12] = as reference formulation A but 0.5% w/w HRP
[13] = as reference formulation A but 15% w/v polymer
[14] = as reference formulation A but 25% w/v polymer
[15] = as reference formulation A but 75/25 PDLGA
[16] = as reference formulation A but O:A 2:1
[17] = as reference formulation A but O:A 8:1
[18] = as reference formulation A but polymer initial MW 50 kDa
[19] = as reference formulation A but polymer initial MW 185 kDa
[20] = HRP film, reference formulation A (1.0% w/w HRP, 17.5% w/v, O:A 4:1, 50/50, 83 kDa)
[21] = as reference formulation A but 2.0% w/w HRP
[22] = as reference formulation A but 20% w/v polymer
[23] = as reference formulation A but O:A 6:1

Mean pore diameter [1, 5]: 2.6 ± 0.8 μm
Porosity [1, 5]: 81.5 ± 3.8%
Mean pore diameter [1, 6]: 0.6 ± 0.1 μm
Porosity [1, 6]: 74.8 ± 3.2%
Mean pore diameter [1, 7]: 0.6 μm
Encapsulation efficiency [2, 5]: 52.8 ± 0.6%
Encapsulation efficiency ([2]; drug-loaded 50:50 PDLGA 17.5% w/v film, no surfactant, 28 000 rpm, listed as paclitaxel): 53%
Encapsulation efficiency [2, 6]: 35.6 ± 2.9%
Encapsulation efficiency [2, 7]: 35%
effect of BSA (fine nanostructure) on burst effect [3, 8]: did not significantly affect
effect of BSA (fine nanostructure) on release rate [3, 8]: only a slight increase
Molecule: CC(=O)O[C@H]1C(=O)[C@@]2(C)[C@H]([C@H](OC(=O)c3ccccc3)[C@]3(O)C[C@H](OC(=O)[C@H](O)[C@@H](NC(=O)c4ccccc4)c4ccccc4)C(C)=C1C3(C)C)[C@]1(OC(C)=O)CO[C@@H]1C[C@@H]2O [Paclitaxel]

Mean pore diameter [1, 5]: 1.1 ± 0.3 μm
Porosity [1, 5]: 88.1 ± 1.2%
Mean pore diameter [1, 9]: 1.9 ± 0.5 μm
Porosity [1, 9]: 83.7 ± 2.4%
Mean pore diameter [1, 10]: 0.8 ± 0.2 μm
Porosity [1, 10]: 81.7 ± 2.5%
Mean pore diameter [1, 11]: 2.2 ± 0.9 μm
Porosity [1, 11]: 81.9 ± 2.6%
Encapsulation efficiency [2, 5]: 71.3 ± 0.5%
Encapsulation efficiency [2, 9]: 74.6 ± 4.2%
Encapsulation efficiency [2, 10]: 78.1 ± 2.1%
Encapsulation efficiency [2, 11]: 69.6 ± 1.0%
time at which the drug was almost fully released [3]: 21 days
Molecule: CC(=O)O.NCc1ccc(S(N)(=O)=O)cc1 [Mafenide acetate, 4-Aminomethylbenzenesulfonamide acetate salt]

Mean pore diameter ± SD ([1]; film from reference formulation B with 5% of the named surfactant, 28000 rpm for 120 seconds): 1.5 μm and 1.5 ± 0.4 μm
Molecule: Sorbitan monooleate [Span 80]

More lines, now with the values behind:

Molecule: HRP: Horseradish peroxidase, 44 kDa; served as a surfactant and a protein-type biomolecule model
HRP burst release [4, 12]: 37%
HRP burst release ([4]; as reference formulation A but 2% w/w HRP): 74%
HRP burst release [4, 13]: 65%
HRP burst release [4, 14]: 47%
HRP burst release rate, 75/25 PDLGA compared to 50/50 PDLGA films [4, 15]: little difference in the burst release rates
HRP burst release [4, 16]: 58%
HRP burst release [4, 17]: 48%
HRP burst release [4, 18]: 73%
HRP burst release [4, 19]: 42%
HRP burst release ([4]; reference formulation A: 50/50 PDLGA 83 kDa, 17.5% w/v polymer, 1% w/w HRP, O:A 4:1): 57%
Mean large pore diameter [1, 20]: 17.1 ± 2.7 μm
Mean small pore diameter [1, 20]: 4.3 ± 0.8 μm
Porosity [1, 20]: 86.9 ± 2.6%
Mean large pore diameter [1, 12]: 16.0 ± 1.6 μm
Mean small pore diameter [1, 12]: 4.5 ± 1.3 μm
Porosity [1, 12]: 88.6 ± 1.4%
Mean large pore diameter [1, 21]: 16.0 ± 1.4 μm
Mean small pore diameter [1, 21]: 3.9 ± 0.4 μm
Porosity [1, 21]: 85.4 ± 2.2%
Mean small pore diameter [1, 13]: 5.5 μm and 5.5 ± 1.1 μm
Porosity [1, 13]: 88.2 ± 2.9%
Mean large pore diameter [1, 22]: 16.1 ± 2.3 μm
Mean small pore diameter [1, 22]: 3.2 ± 0.5 μm
Porosity [1, 22]: 85.8 ± 2.9%
Mean large pore diameter [1, 14]: 17.1 ± 1.9 μm
Mean small pore diameter [1, 14]: 1.5 μm and 1.5 ± 0.2 μm
Porosity [1, 14]: 82.2 ± 3.3%
Mean large pore diameter [1, 15]: 16.6 ± 3.6 μm
Mean small pore diameter [1, 15]: 5.9 ± 0.8 μm
Porosity [1, 15]: 89.2 ± 0.8%
Mean large pore diameter [1, 16]: 17.3 ± 3.3 μm
Mean small pore diameter [1, 16]: 4.7 μm and 4.7 ± 1.0 μm
Porosity [1, 16]: 92.5% and 92.5 ± 1.0%
Mean large pore diameter [1, 23]: 18.0 ± 3.8 μm
Mean small pore diameter [1, 23]: 3.0 ± 0.6 μm
Porosity [1, 23]: 82.1 ± 1.6%
Mean large pore diameter [1, 17]: 17.2 ± 2.1 μm
Mean small pore diameter [1, 17]: 2.3 μm and 2.3 ± 0.4 μm
Porosity [1, 17]: 76.7% and 76.7 ± 2.5%
Mean small pore diameter [1, 18]: 7.1 μm and 7.1 ± 1.4 μm
Porosity [1, 18]: 87.7 ± 2.0%
Mean large pore diameter [1, 19]: 16.4 ± 2.8 μm
Mean small pore diameter [1, 19]: 2.5 μm and 2.5 ± 0.6 μm
Porosity [1, 19]: 85.3 ± 1.2%
Encapsulation efficiency ([2]; HRP film, 0.5 w/w HRP): 89%
Encapsulation efficiency ([2]; HRP film, 1 w/w HRP, 17.5% w/v polymer (reference formulation A)): 87%
Encapsulation efficiency ([2]; HRP film, 2 w/w HRP): 86%
Encapsulation efficiency ([2]; HRP film, 15.5% w/v polymer): 90%
Encapsulation efficiency ([2]; HRP film, 25% w/v polymer): 85%

Molecule: CC(C)(O/N=C(\C(=O)N[C@@H]1C(=O)N2C(C(=O)[O-])=C(C[n+]3ccccc3)CS[C@H]12)c1csc(N)n1)C(=O)O [Ceftazidime hydrate, ceftazidime hydrate]
Mean pore diameter [1, 5]: 1.1 ± 0.4 μm
Porosity [1, 5]: 77.6 ± 2.2%
Mean pore diameter [1, 9]: 1.5 ± 0.5 μm
Porosity [1, 9]: 75.4 ± 0.5%
Mean pore diameter [1, 10]: 0.7 ± 0.2 μm
Porosity [1, 10]: 75.6 ± 0.5%
Mean pore diameter [1, 11]: 1.8 ± 0.7 μm
Porosity [1, 11]: 80.5 ± 3.0%
Encapsulation efficiency [2, 5]: 37.0 ± 1.9%
Encapsulation efficiency [2, 9]: 58.4 ± 2.3%
Encapsulation efficiency [2, 10]: 50.7 ± 0.5%
Encapsulation efficiency [2, 11]: 41.7 ± 1.6%
time at which the drug was almost fully released [3]: ≤ 3 days
